Data taken from patent US8852569B2, “Prevention and treatment of itch with cysteine protease inhibition” (The General Hospital Corporation, priority 2008, dated 2014).

B1: cathepsin S: recombinant human cysteine protease, expressed in E. coli as zymogen and cleaved to active enzyme (protein)
chain: LPDSVDWREKGCVTEVKYQGSCGACWAFSAVGALEAQLKLKTGKLVSLSAQNLVDCSTEKYGNKGCNGGFMTTAFQYIIDNKGIDSDASYPYKAMDQKCQYDSKYRAATCSKYTELPYGREDVLKEAVANKGPVSVGVDARHPSFFLYRSGVYYEPSCTQNVNHGVLVVGYGDLNGKEYWLVKNSWGHNFGEEGYIRMARNKGNHCGIASFPSYPEI
B2: cathepsin K: recombinant human cysteine protease, expressed in E. coli as zymogen and cleaved to active enzyme (protein)
chain: APDSVDYRKKGYVTPVKNQGQCGSCWAFSSVGALEGQLKKKTGKLLNLSPQNLVDCVSENDGCGGGYMTNAFQYVQKNRGIDSEDAYPYVGQEESCMYNPTGKAAKCRGYREIPEGNEKALKRAVARVGPVSVAIDASLTSFQFYSKGVYYDESCNSDNLNHAVLAVGYGIQKGNKHWIIKNSWGENWGNKGYILMARNKNNACGIANLASFPKM

What was measured:
[1] = tested on: PAR4; assay: PAR activation by cytoplasmic calcium release in transfected HeLa cells (Fura-2 ratiometric imaging), PAR4; type: cell-based, human
Description: (§1) The responses to PAR 2 and 4 were blocked by the protease inhibitor E64 (10 μM) as a control). Other controls included vector alone and vector encoding the PAR1 receptor. Cathepsin S was added as indicated. The averages from at least three separate experiments were then combined +/−SD.
(§2) Salmon sperm (SS) DNA is used as control. The averages from at least three separate experiments were then combined +/−SD.
(§3) PAR activation observed by cytoplasmic calcium release—The four human PAR cDNAs were obtained from commercial sources and cloned into the pcDNA3.1(−) vector (INVITROGEN™ Inc.). HeLa cells were transfected with 10 μg of vector cDNA using Lipofectamine 2000 (INVITROGEN™ Inc.) and cultured for two days in 96-well glass bottom plates at 30,000 cells/well. Cells were loaded with Fura-2 as follows. The medium was aspirated and replaced with 100 μl of complete DMEM containing 2 μM Fura-2 (INVITROGEN™ Inc.) and kept at room temperature in the dark for 1 hr. The medium was again aspirated and each well received 90 μl of HEPES buffered saline (20 mM HEPES, 115 mM NaCl, 5.4 mM KCl, 2 mM CaCl2, 0.8 mM MgCl2, 13.8 mM glucose, pH 7.4). Plates were observed using a Zeiss Axiovert 200M microscope equipped with a filter wheel for monitoring excitation at 340 and 380 nm. Axiovision software, version 4.6 was used to analyze ratiometric calcium imaging of the cells. […]

[2] = Chromogenic substrate assay, protease activity of the purified recombinant cathepsins; type: biochemical; conditions: FIG. 1; protease 0.84 μM
Description: The concentrations of all the three proteases are at 0.84 μM and that of E64, a non-selective irreversible inhibitor of cysteine proteases, is at 2 μM […].
Papain served as a positive control cysteine protease. The cathepsin S and K were further evaluated for their capacity to activate PAR receptors as noted below.

[3] = tested on: PAR2; assay: PAR activation by cytoplasmic calcium release in transfected HeLa cells (Fura-2 ratiometric imaging), PAR2; type: cell-based, human
Description: as §1, §2, §3

[4] = tested on: PAR1; assay: PAR activation by cytoplasmic calcium release in transfected HeLa cells (Fura-2 ratiometric imaging), PAR1; type: cell-based, human; conditions: HeLa cells transfected with PAR1
Description: as §1
as §3, with “cells. Ten μl of a 21 μM solution of recombinant human cathepsin S were applied approximately 20 seconds after the start of excitation.” for “cells.”

[5] = tested on: human volunteers; assay: Itch evoked by inactivated cowhage spicules reconstituted with cathepsin S, inserted into skin; type: in vivo
Description: Recombinant cathepsin S also evokes itch in human volunteers. In this experiment, native itch-evoking spicules from the plant Mucuna pruriens were inactivated by autoclaving for 1 hour and reconstituted with recombinant cathepsin S. Typically, 50 mg of inactivated spicules were mixed with 0.4 ml of 1 mg of recombinant cathepsin S in 0.1M NaCl with 0.01 M L-cysteine in a 2 ml microfuge tube, vortexed, dried in a Speed-vac for 2 hours at room temperature, vortexed again and transferred to a new tube. This second vortex step allowed for precipitated salt to be separated from the spicules. These spicules were then considered ‘reconstituted’ with the cathepsin S. Individual spicules were then superficially inserted approximately 0.2 mm into the skin of volunteers who rated the subsequent itch as “very strong”. The mean perceived intensity of itch and nociceptive sensation evoked by a single inactivated spicule reconstituted with cathepsin S on nine human volunteers is shown in FIG. 3A. The mean perceived intensity is similar with that for itch and nociceptive sensation evoked by a single spicule of native cowhage for the same nine volunteers.

[6] = cathepsin S 30 nM versus mucunain

| Molecule | concentration at which strong activation of PAR4 occurred (calcium flux) ([1]; HeLa cells transfected with PAR4) | activating concentration relative to that needed for stimulation via mucunain, PAR4 [1, 6] | capacity to cleave the chromogenic substrate Z-Phe-Arg-pNA [2] | concentration at which strong activation of PAR2 occurred (calcium flux) ([3]; HeLa cells transfected with PAR2) | activating concentration relative to that needed for stimulation via mucunain, PAR2 [3, 6] | activation of PAR1 (calcium flux) [4] | mean perceived intensity of itch and nociceptive sensation compared with a single spicule of native cowhage ([5]; nine human volunteers, FIG. 3A versus 3B) | itch rating by volunteers ([5]; single reconstituted spicule inserted approximately 0.2 mm into skin) |
| --- | --- | --- | --- | --- | --- | --- | --- | --- |
| B1 | 30 nM | at least ten-fold less | had protease activity | 30 nM | at least ten-fold less | no activation | similar | very strong |
| B2 |  |  | had protease activity |  |  |  |  |  |
